In publication PMC8160216 one finds reduction of the AUC of dissociation relative to Gq and faster dissociation relative to Gq data, which are given here for two substances.

Bounds are passed on as bounds.

This test has as its target human M3R-mCit (muscarinic M3 receptor, C-terminally mCitrine-labeled) (human) (UniProt P20309). Briefly: FRET or BRET; single permeabilized HEK293T cells (saponin), nucleotides washed out; FRET between M3R-mCitrine and mTurquoise2-Gγ2 of the co-expressed G protein; 10 µM acetylcholine for 1 min, 2 min washout, twice; final GTPγS to induce full dissociation; stability of the complex as AUC of the normalized trace after agonist withdrawal; room temperature, internal buffer pH 7.35. A general note: In BRET a luciferase serves as donor, and the signal depends on an acceptor being close.
Chain of UniProt P20309 (P20309 whole entry): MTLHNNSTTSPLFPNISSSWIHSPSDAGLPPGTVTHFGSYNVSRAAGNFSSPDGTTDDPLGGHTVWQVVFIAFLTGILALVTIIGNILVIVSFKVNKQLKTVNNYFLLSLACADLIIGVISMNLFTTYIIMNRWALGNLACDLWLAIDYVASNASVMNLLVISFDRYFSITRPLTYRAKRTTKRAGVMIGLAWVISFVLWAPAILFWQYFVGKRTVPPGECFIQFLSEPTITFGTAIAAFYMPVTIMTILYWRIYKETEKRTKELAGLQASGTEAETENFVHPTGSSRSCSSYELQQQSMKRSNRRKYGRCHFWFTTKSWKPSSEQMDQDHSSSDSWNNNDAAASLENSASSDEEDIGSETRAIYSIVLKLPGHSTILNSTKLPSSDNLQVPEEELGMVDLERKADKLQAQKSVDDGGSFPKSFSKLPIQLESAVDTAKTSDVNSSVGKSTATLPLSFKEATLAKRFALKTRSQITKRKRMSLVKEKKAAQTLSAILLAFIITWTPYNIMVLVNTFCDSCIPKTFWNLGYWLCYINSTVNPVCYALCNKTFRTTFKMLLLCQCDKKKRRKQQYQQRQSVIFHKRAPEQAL

“GqoC11 (Gαq chimera with the C-terminal part of the α5 helix of Gαo, with Gβ1 and mTurq2-Gγ2) (from UniProt P21279 1-348; P59215 344-354; P62873 1-340; P63212 1-71) (complex)” yielded a reduction of the AUC of dissociation relative to Gq below 5%.

On to “GqoN + C11 (Gαq chimera with the N-terminus and the last 11 amino acids of Gαo, with Gβ1 and mTurq2-Gγ2) (from UniProt P59215 344-354; P62873 1-340; P63212 1-71) (complex)”, for which the faster dissociation relative to Gq is below 10%.
